Experimental data published in publication PMC10957929.
Substitutions are numbered along the chain they refer to.

Columns and labels:
[1] = molecular target: T1, GST-DRG9Nip (F267G) F267G (Oryza sativa ssp. japonica cv. Nipponbare) (UniProt Q69P58); assay: EMSA; details: 20 mM Hepes pH 7.5, 20 mM KCl2 (so in the source), 1 mM MgCl2, 10 mM ZnCl2, 5 mM DTT, 10% glycerol, 0.1% NP-40, room temperature, 1 h; 6% native PAGE, 0.5x TBE
T1 sequence: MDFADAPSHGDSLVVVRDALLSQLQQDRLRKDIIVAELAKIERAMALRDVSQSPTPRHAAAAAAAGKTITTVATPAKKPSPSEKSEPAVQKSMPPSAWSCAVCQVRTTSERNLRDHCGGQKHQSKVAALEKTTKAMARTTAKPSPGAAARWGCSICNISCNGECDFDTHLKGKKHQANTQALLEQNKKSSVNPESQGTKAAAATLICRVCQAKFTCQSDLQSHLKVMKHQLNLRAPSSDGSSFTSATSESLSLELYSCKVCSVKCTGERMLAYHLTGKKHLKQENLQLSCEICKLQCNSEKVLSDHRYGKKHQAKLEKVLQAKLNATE

[2] = molecular target: T2, GST-DRG9Nip (N186S) N186S (Oryza sativa ssp. japonica cv. Nipponbare) (UniProt Q69P58); assay: EMSA; details: 20 mM Hepes pH 7.5, 20 mM KCl2 (so in the source), 1 mM MgCl2, 10 mM ZnCl2, 5 mM DTT, 10% glycerol, 0.1% NP-40, room temperature, 1 h; 6% native PAGE, 0.5x TBE
T2 sequence: T1 sequence with N186S, G267F

GGGCUCAAAUUAAUUAGCCAGUGAAAAAUCAAAUUACAGAGUUGCUUAAUUUUUUUACUAGUAGAACGCAACAGUAAAAAGAAUUAACAGCAGUGAAUUAUUAGUUAAUUAGCUAGGGAGUUGAAAUAGUUUAGCGGUCAUGCACUACUGAUUUUUAAUUAGUGCAGACAACGACCGCGUGUGUGUAUAUGCAUGUAUACCUUUUACUGUAUCUUCAGAUUGUGUAUAUAUAUCAUAUAUGUACAGGAAAAGAUUUAUAUAUCAUACAUAUUUUGUUGU [OsNCED4 3'-UTR RNA]
binding [1]: binds more weakly
binding [2]: binds
